From the supplement of paper PMC10065799, “High-throughput profiling of sequence recognition by tyrosine kinases and SH2 domains using bacterial peptide display” (eLife, 2023)
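Wherever SH2 binding enrichment of the phosphorylated peptide, bacterial display is given: peptide library displayed on the E. coli surface as eCPX fusions, selected cells deep-sequenced, score is each peptide's frequency after selection divided by its frequency in the input.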
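Wherever phosphorylation enrichment, bacterial display is given: 11-residue human phosphosite peptides and single-mutation variants displayed on the E. coli surface, counted by deep sequencing, each peptide's frequency after selection divided by its frequency in the unselected input library; frequency after pTyr selection over input frequency; kinase dosed for 20-30% of maximal phosphorylation in three min.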

These sequences were tested against SHP2-C SH2 (assay: SH2 binding enrichment of the phosphorylated peptide, bacterial display (enrichment ratio); higher = better substrate or ligand; peptides without Tyr show the background).
With FKGKNYKPLDL [RPL35_Y78_K77N_YF] the SH2 binding enrichment was 0.644.
QQIFTYDSGIH [JUP_Y22_T19I_YF] gave an SH2 binding enrichment of 0.793.
For VKPENDRRLDI [VHL_Y175_Y175D], the SH2 binding enrichment was 0.718.
Work on LAETSYVIVLE [MAGEA1_Y276_K278I] yielded an SH2 binding enrichment of 0.983.
SRDTRYLVLAV [AMH_Y195] showed an SH2 binding enrichment of 2.34.
EEGRVYVFRLS [ITGAE_Y549_YF] showed an SH2 binding enrichment of 0.806.
DPLLTYLFPPK [LMNA_Y481_R482L] gave an SH2 binding enrichment of 1.19.
For ITVCDYTNPCT [MYD88_Y276], the SH2 binding enrichment was 0.603.
In the case of VDTGVYAVPPP [BCAR1_Y410_S407T], the SH2 binding enrichment is reported as 0.602.
NCFKFYMSDDI [ATRX_Y204_YF] was tested, and the SH2 binding enrichment was 0.721.
Sequence RLLVIYPWTQR [HBG2_Y36_V35I] has an SH2 binding enrichment of 1.49.
SLLLSYFLIKW [NUP160_Y773_P768S_YF] gave an SH2 binding enrichment of 0.978.
Work on AERKLYRNVML [ZNF569_Y33_Q29E] yielded an SH2 binding enrichment of 1.65.
In the case of AEEEIYGEFEA [Src_opt_1995], the SH2 binding enrichment is reported as 0.69.
With VGRVGYVSGWG [HP_Y280] the SH2 binding enrichment was 0.854.
VDDEIYFFRKP [PBRM1_Y1289_YF] gave an SH2 binding enrichment of 0.661.
FSNPAYYVLEG [INPPL1_Y986_N982S] gave an SH2 binding enrichment of 0.99.
DYTEAYNSKIK [CLK1_Y305_P307S] was tested, and the SH2 binding enrichment was 0.582.
IEENGYNTFAS [FGF10_Y161_YF] was tested, and the SH2 binding enrichment was 0.66.
LTECGYSFTTT [ACTB_Y198_R196C] gave an SH2 binding enrichment of 0.602.
Work on LEKRAYICAHP [ACAD9_Y611] yielded an SH2 binding enrichment of 0.889.
Sequence YAREGYSALPQ [SARS2_Y52] has an SH2 binding enrichment of 0.577.
Sequence SLDHPYEKPRK [INAVA_Y333] has an SH2 binding enrichment of 0.683.
In the case of ADNSAYLMGLN [MYH7_Y386_K383N], the SH2 binding enrichment is reported as 0.723.
Sequence KAESWYQTKYE [KRT75_Y342_E337K] has an SH2 binding enrichment of 0.648.
FECKWYIPLTD [BCR_Y756_D752E_YF] was tested, and the SH2 binding enrichment was 0.817.
For TGDFGYRAPGY [TNS2_Y668], the SH2 binding enrichment was 0.619.
With CTTIYYNYMCN [TP53_Y234_H233Y] the SH2 binding enrichment was 2.23.
For TTICKYSTPME [GUCY2C_Y839], the SH2 binding enrichment was 0.967.
Sequence TPTYPYLLPKS [PLD2_Y580] has an SH2 binding enrichment of 0.899.
With HSLLQYGGSAN [ANK1_Y624_R619H] the SH2 binding enrichment was 0.661.
NPQKSYFILLY [WAS_Y83_R86L] gave an SH2 binding enrichment of 0.827.
QPDLLYDHIQP [TRRAP_Y862_F860L] showed an SH2 binding enrichment of 0.517.

These sequences were tested against FGFR3 (UniProt P22607) (assay: phosphorylation enrichment, bacterial display (enrichment ratio); higher = better substrate or ligand; peptides without Tyr show the background).
Chain of FGFR3 (P22607 whole entry, looked up): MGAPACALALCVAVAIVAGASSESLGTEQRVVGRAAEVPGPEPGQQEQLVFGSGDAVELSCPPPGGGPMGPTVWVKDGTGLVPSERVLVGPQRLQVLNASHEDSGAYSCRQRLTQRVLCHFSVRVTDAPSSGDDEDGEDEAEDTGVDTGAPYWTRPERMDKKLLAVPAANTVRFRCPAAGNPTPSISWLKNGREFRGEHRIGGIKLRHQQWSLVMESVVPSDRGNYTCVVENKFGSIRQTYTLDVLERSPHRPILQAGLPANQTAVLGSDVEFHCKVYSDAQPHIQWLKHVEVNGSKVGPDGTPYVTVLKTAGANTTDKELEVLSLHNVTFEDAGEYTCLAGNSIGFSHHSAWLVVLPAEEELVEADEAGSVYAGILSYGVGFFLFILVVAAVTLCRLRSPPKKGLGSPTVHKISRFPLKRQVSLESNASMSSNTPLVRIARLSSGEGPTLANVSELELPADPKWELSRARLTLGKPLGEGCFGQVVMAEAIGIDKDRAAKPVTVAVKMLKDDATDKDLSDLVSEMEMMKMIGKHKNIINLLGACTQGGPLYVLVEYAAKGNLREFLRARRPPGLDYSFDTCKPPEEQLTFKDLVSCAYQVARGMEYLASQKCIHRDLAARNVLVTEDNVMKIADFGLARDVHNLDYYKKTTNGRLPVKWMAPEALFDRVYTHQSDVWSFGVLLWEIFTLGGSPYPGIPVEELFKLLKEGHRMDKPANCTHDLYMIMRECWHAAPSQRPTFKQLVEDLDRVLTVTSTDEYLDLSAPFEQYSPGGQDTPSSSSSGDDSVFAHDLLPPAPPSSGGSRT
FKGKNYKPLDL [RPL35_Y78_K77N_YF] showed a phosphorylation enrichment of 0.418.
QQIFTYDSGIH [JUP_Y22_T19I_YF] gave a phosphorylation enrichment of 1.09.
Sequence VKPENDRRLDI [VHL_Y175_Y175D] has a phosphorylation enrichment of 0.539.
LAETSYVIVLE [MAGEA1_Y276_K278I] gave a phosphorylation enrichment of 0.997.
SRDTRYLVLAV [AMH_Y195] showed a phosphorylation enrichment of 0.683.
With EEGRVYVFRLS [ITGAE_Y549_YF] the phosphorylation enrichment was 0.836.
With DPLLTYLFPPK [LMNA_Y481_R482L] the phosphorylation enrichment was 2.62.
For ITVCDYTNPCT [MYD88_Y276], the phosphorylation enrichment was 0.719.
In the case of VDTGVYAVPPP [BCAR1_Y410_S407T], the phosphorylation enrichment is reported as 1.14.
Sequence NCFKFYMSDDI [ATRX_Y204_YF] has a phosphorylation enrichment of 0.745.
For RLLVIYPWTQR [HBG2_Y36_V35I], the phosphorylation enrichment was 1.03.
SLLLSYFLIKW [NUP160_Y773_P768S_YF] gave a phosphorylation enrichment of 1.08.
In the case of AERKLYRNVML [ZNF569_Y33_Q29E], the phosphorylation enrichment is reported as 0.407.
AEEEIYGEFEA [Src_opt_1995] was tested, and the phosphorylation enrichment was 1.
Work on VGRVGYVSGWG [HP_Y280] yielded a phosphorylation enrichment of 0.56.
VDDEIYFFRKP [PBRM1_Y1289_YF] showed a phosphorylation enrichment of 1.32.
FSNPAYYVLEG [INPPL1_Y986_N982S] gave a phosphorylation enrichment of 7.89.
DYTEAYNSKIK [CLK1_Y305_P307S] gave a phosphorylation enrichment of 0.585.
With IEENGYNTFAS [FGF10_Y161_YF] the phosphorylation enrichment was 0.614.
LTECGYSFTTT [ACTB_Y198_R196C] showed a phosphorylation enrichment of 0.754.
LEKRAYICAHP [ACAD9_Y611] was tested, and the phosphorylation enrichment was 0.616.
YAREGYSALPQ [SARS2_Y52] showed a phosphorylation enrichment of 0.52.
In the case of SLDHPYEKPRK [INAVA_Y333], the phosphorylation enrichment is reported as 0.421.
Sequence ADNSAYLMGLN [MYH7_Y386_K383N] has a phosphorylation enrichment of 0.61.
KAESWYQTKYE [KRT75_Y342_E337K] gave a phosphorylation enrichment of 0.491.
FECKWYIPLTD [BCR_Y756_D752E_YF] was tested, and the phosphorylation enrichment was 1.
In the case of TGDFGYRAPGY [TNS2_Y668], the phosphorylation enrichment is reported as 0.435.
For CTTIYYNYMCN [TP53_Y234_H233Y], the phosphorylation enrichment was 9.96.
TTICKYSTPME [GUCY2C_Y839] showed a phosphorylation enrichment of 0.567.
TPTYPYLLPKS [PLD2_Y580] was tested, and the phosphorylation enrichment was 0.505.
With HSLLQYGGSAN [ANK1_Y624_R619H] the phosphorylation enrichment was 0.531.
NPQKSYFILLY [WAS_Y83_R86L] was tested, and the phosphorylation enrichment was 1.38.
With QPDLLYDHIQP [TRRAP_Y862_F860L] the phosphorylation enrichment was 1.5.
